# Reference: patent US20250099622A1, “COMPOSITIONS AND METHODS FOR EXPRESSING THERAPEUTICS” (priority 2022, published 2025)
# What was measured:
# [1] = system: NIH3T3 cells (cGMP secreted); test: EC50 for CNP-Fc constructs, cGMP ELISA of NIH3T3 supernatant; type: cell-based; conditions: NIH3T3, 30 minutes, 1.8 mM IBMX, cGMP secreted by the cells; FIG. 25B
# Method: EC50 for CNP-Fc described herein were measured by ELISA. 2.5E+05 NIH3T3 cells/well were plated. […] After 30 minutes, supernatant was collected for cGMP determined via ELISA. FIG. 25A illustrates a standard curve of cGMP.
# [2] = NMDA mouse study: in-house CNP36-Fc ELISA of ocular (whole globe) and serum samples
# Method: Animals in Groups 3-6 had terminal blood collected on Day 7. IBMX was used during blood collection to inhibit phosphodiesterase activity. […] Briefly, each syringe for cardiac puncture was pre-rinsed with a stock solution of 10 mM IBMX prior to drawing blood. All mice were sedated to a deep plane of sedation under isoflurane and euthanized via exsanguination. After each syringe was pre-rinsed with 10 mM IBMX, a 25 G needle was inserted into the heart and the animal was exsanguinated and euthanized, and blood was collected. The volume of blood collected was noted on the paperwork and the appropriate volume of IBMX was added into a 1.5 mL RNAse/DNAse-free microfuge tube. […]
# Bioanalytical work and the accompanying analyses were performed at the conclusion of the study. […] Left eyes (OS) from all animals (n=8) in each group receiving the different AAV constructs were analyzed. […]
# The CNP36 and CNP-Fc36 expression in ocular (whole globes) and serum samples was quantified using the commercial CNP36 ELISA kit and in-house CNP36-Fc ELISA (Example 2), respectively. […] After a 45 min incubation, plates were washed and CNP36-Fc was detected by the addition of 3,3′,5,5′-tetramethylbenzidine (TMB) substrate. The reaction was stopped by the addition of stop solution and the plate was read immediately at 450 nm along with the reference wavelength of 600 nm. […]
# [3] = system: retinal ganglion cells (RGC); test: NMDA excitotoxicity mouse model: RGC count by retinal Flatmount; type: in vivo, C57BL/6); conditions: AAV 4E+8 vg/eye IVT 28 days prior to NMDA
# Method: This study was for evaluating the effect of adeno-associated viral (AAV) vectors on retinal ganglion cell protection following damage caused via N-methyl-D-aspartate (NMDA) administration in the mouse. […] Groups 7 and 8 were added to test a higher concentration of MK-801. […] This study was conducted in wild type mice (Mus musculus, C57BL/6).
# 300 μL of the 5 mM NMDA stock was combined with 300 μL of sterile PBS and 1 μL as injected on Day 0 for a final concentration of 2.5 mM NMDA.
# 300 μL of the 5 mM NMDA stock as combined with 300 μL of sterile-filtered MK-801 and 1 μL was injected on Day 0 for a final concentration of 2.5 mM NMDA/100 μM MK-801.
# 300 μL of the 5 mM NMDA stock was combined with 300 μL of sterile PBS and 1 μL was injected on Day 0 for a final concentration of 2.5 mM NMDA.
# On Day −28 or Day 0 based on the experimental design, mice were given buprenorphine 0.01-0.05 mg/kg subcutaneously (SQ). Animals were then tranquilized for the intravitreal injections with ketamine/xylazine or inhaled isoflurane and one drop of 0.5% proparacaine HCl was applied to both eyes. The conjunctiva was gently grasped with Dumont #4 forceps, and the injection was made using a 33 G needle and a Hamilton syringe. After dispensing the syringe contents, the syringe needle was slowly withdrawn. Following the injection procedure, 1 drop of Ofloxacin ophthalmic solution was applied topically to the ocular surface with eye lube.
# Eyes were enucleated and immediately fixed in 4% paraformaldehyde in phosphate-buffered saline (PBS) and stored overnight at 4° C. The following day, the eyes were transferred to cold immunocytochemistry (ICC) buffer (PBS containing 0.5% BSA and 0.2% Tween 20) until processing. Using a dissecting microscope, the eye was carefully trimmed of extraneous tissue at the limbus and, using fine curved scissors, the anterior chamber was removed. Retinas in the eye cup were rinsed with cold ICC buffer. Eye cups were placed in cold ICC buffer containing 1/100 rat anti-CNP36 (Groups 3-6 only; resuspended at 0.5 mg/mL in PBS) for 3 hours at 4° C. Eye cups were then washed extensively and stained with 1/200 donkey anti-rat Cy3 and 1/1,000 DAPI for 2-3 hours at 4° C. Groups 1 and 2 were stained with 1/500 TUJ-1 and 1/1000 DAPI, while Groups 7 and 8 were incubated with 1/1,000 DAPI alone. Eye cups were washed extensively but gently with cold ICC buffer. Using fine curved scissors and an eyelash knife, the retina was detached from the optic nerve head and removed from the RPE/choroid. Radial cuts were then made toward the center and retinas were flat mounted, covered, and sealed. 2D fluorescent microscopy images were acquired using an Olympus Bx63 upright fluorescent microscope. […] Images at 20× were acquired in 4 quadrants and a central 248.1×325.7 μm region was analyzed for RGC counts using Olympus cellSens and ImageJ software.
# Groups 1 and 2 were stained with DAPI and TUJ-1 and images were captured at 20× (FIG. 10A). RGCs were counted in four quadrants, and cells/mm2 were averaged across each group.
# Groups 3-8 were stained for DAPI and four images were captured for each retina at 20× approximately 600 μm from the optic nerve head. RGCs were counted in a central 248.1×325.7 μm region and cells/mm2 were averaged over each group (FIG. 10C).
# The statistical analyses were performed on the Group 3-8 RGC data (one-way ANOVA followed by multiple comparisons using the Dunnett statistical hypothesis comparison).
# Human NPR-B = target: T1, Human NPR-B (Homo sapiens, UniProt P20594); test: Biacore SPR kinetic affinity binding to immobilized NPR-B; conditions: Table 32 summary of affinity
# T1 construct: purchased R&D system
# T1 sequence (P20594 23-458 limits assumed): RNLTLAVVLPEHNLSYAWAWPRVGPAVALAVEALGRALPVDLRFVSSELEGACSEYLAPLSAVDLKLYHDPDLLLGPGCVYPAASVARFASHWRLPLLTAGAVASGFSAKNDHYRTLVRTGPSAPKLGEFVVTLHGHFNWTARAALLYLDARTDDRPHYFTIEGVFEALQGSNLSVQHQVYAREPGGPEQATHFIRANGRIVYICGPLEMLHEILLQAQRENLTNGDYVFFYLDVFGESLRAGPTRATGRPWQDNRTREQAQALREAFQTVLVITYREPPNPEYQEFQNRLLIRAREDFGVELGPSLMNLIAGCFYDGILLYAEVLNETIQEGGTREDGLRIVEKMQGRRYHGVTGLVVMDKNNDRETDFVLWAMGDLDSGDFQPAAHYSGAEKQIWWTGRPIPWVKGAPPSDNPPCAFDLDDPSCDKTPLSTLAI
# Method: The biological function of these purified protein was assayed for their stimulation of production of cGMP, using NPR-B receptor positive cell line, NIH/3T3 and NPR-B negative cell line HEK293 cells. The determination of cGMP was assay by ELISA using commercial CNP as standard curves. […] Surface preparation. NBR-B was immobilized at different levels in three flow cells via standard amine coupling, leaving Fc 1 unmodified to serve as a reference. All surface plasmon resonance (SPR) analysis was performed on a BIAcore 3000 system using series CM5 sensor chips. Data processing and analysis were performed using BIAevaluation software. All sensorgrams were double referenced by subtracting the response on a reference flow cell and a blank sample. Human NPR-B (R&D system) was covalently attached to a CM5 chip via amine coupling. A surface density of 6600 RU was used for measurements with natriuretic peptides Sequential injections of CNP (0.5-8 nM) were performed at a flow rate of […] (300 s for each), followed by a dissociation time of 900 s. […] Kinetic parameters were calculated assuming a simple 1:1 (Langmuir) binding. […] All SPR analysis was performed on a BIAcore 3000 system using series CM5 sensor chips. Data processing and analysis were performed using BIAevaluation software. All sensorgrams were double referenced by subtracting the response on a reference flow cell and a blank sample. Human NPR-B (R&D system) was covalently attached to a CM5 chip via amine coupling. A surface density of 3100 RU was used for measurements with natriuretic peptides Sequential injections of AMI263 (FC4-CNP) (0.125-2 nM) were performed at a flow rate of […] (300 s for each), followed by a dissociation time of 900 s. […] Kinetic parameters were calculated assuming a simple 1:1 (Langmuir) binding. […] All SPR analysis was performed on a BIAcore 3000 system using series CM5 sensor chips. Data processing and analysis were performed using BIAevaluation software. All sensorgrams were double referenced by subtracting the response on a reference flow cell and a blank sample. Human NPR-B (R&D system) was covalently attached to a CM5 chip via amine coupling. […] Kinetic parameters were calculated assuming a simple 1:1 (Langmuir) binding. […] All SPR analysis was performed on a BIAcore 3000 system using series CM5 sensor chips. Data processing and analysis were performed using BIAevaluation software. All sensorgrams were double referenced by subtracting the response on a reference flow cell and a blank sample. Human NPR-B (R&D system) was covalently attached to a CM5 chip via amine coupling. A surface density of 3100 RU was used for measurements with natriuretic peptides Sequential injections of AMI263 (FC4-CNP) (0.5-300 nM) were performed at a flow rate of […] (300 s for each), followed by a dissociation time of 900 s. […] Kinetic parameters were calculated assuming a simple 1:1 (Langmuir) binding. […] All SPR analysis was performed on a BIAcore 3000 system using series CM5 sensor chips. Data processing and analysis were performed using BIAevaluation software. All sensorgrams were double referenced by subtracting the response on a reference flow cell and a blank sample. Human NPR-B (R&D system) was covalently attached to a CM5 chip via amine coupling.
substance,measurement,setting,value
"AMI088: purified fusion protein Fc1-(G4S)4-CNP36 (IgG1 Fc), SEQ ID NO: 133",EC50 values (rank order),[1],CNP-22 ≡Fc4-CNP36>Aflibercept-Fc4-CNP36>Fc1-CNP36>>Fc4-CNP22
same,CNP36-Fc expression in serum samples,[2]; Day 7 serum,Neither CNP36-Fc nor CNP36 were expressed
same,stability of CNP36-Fc in ocular samples,"[2]; mouse, in vivo",stable and thus quantifiable
same,RGC counts compared to sham AAV + NMDA group,[3],higher RGC counts
same,ka,Human NPR-B,4.09E+07
same,kd,Human NPR-B,2.96E−05
